Consider 21 molecules from article PMC2408616, “Modular Organization and Combinatorial Energetics of Proline–Tyrosine Nuclear Localization Signals” (PLoS Biology, 2008).

The experiment has as its target T1, Kap104p (yeast (S. cerevisiae), UniProt P38217 1-918).
T1 construct: Kap104p, yeast homolog of Kapβ2; gene a gift from J. Aitchison, subcloned into pGEX-Tev; also called yeast Karyopherin β2 homolog; source: E. coli Rosetta(DE3)pLysS, purified (glutathione sepharose, TEV cleavage, anion exchange, gel filtration)
T1 sequence (looked up): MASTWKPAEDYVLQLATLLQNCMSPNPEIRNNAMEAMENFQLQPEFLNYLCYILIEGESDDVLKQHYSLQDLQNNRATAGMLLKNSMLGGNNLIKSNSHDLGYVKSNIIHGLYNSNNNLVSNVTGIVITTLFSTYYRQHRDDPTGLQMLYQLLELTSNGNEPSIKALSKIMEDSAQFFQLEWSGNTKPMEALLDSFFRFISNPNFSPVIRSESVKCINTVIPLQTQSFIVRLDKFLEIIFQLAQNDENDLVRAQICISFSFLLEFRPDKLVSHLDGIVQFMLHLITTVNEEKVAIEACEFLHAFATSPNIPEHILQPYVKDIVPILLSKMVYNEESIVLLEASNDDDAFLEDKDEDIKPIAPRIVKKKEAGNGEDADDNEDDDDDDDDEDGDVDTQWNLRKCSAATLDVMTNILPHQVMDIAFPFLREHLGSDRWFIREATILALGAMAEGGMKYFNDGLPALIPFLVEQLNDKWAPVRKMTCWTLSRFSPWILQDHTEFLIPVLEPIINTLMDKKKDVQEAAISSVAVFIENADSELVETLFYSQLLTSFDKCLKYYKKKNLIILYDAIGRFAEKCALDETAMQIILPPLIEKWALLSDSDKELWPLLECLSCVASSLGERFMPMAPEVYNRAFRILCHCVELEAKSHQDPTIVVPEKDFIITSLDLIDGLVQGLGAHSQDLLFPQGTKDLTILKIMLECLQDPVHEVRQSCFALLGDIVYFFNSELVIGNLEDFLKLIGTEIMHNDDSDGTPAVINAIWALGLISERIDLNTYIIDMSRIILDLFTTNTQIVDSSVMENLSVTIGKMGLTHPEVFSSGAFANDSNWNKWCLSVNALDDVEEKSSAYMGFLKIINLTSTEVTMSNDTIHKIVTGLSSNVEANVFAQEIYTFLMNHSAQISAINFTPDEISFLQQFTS
In words: ITC; 90–350 μM MBP-NLS titrated into 9–35 μM Kap104p in the cell; 20 °C; 20 mM Tris pH 7.5, 100 mM NaCl, 2 mM β-mercaptoethanol, 10% glycerol; 35 injections of 8 μl; single-site model. As to conditions: both partners purified.

Positions count from the first letter of the chain named. Names and notes keep the numbering of the source.

B1: MBP–Nab2p NLS K216A (domain or fragment, S. cerevisiae, UniProt P32505 201-251, looked up)
chain: DNSQRFTQRGGGAVGANRRGGRGGNRGGRNNNSTRFNPLAKALGMAGESNM
notes: Nab2p NLS, residues 201-251; source: E. coli BL21(DE3), purified (amylose resin, cation exchange)
On to B1, for which the binding result was “binds”.

B2: MBP–Nab2p NLS L239V (domain or fragment, S. cerevisiae, UniProt P32505 201-251, looked up)
chain: B1 chain with A16K, L39V
notes: Nab2p NLS, residues 201-251; also called L239 to V; source: E. coli BL21(DE3), purified (amylose resin, cation exchange)
Consider B2, for which the binding result is given as “binds”.

B3: MBP–Nab2p NLS L239N (domain or fragment, S. cerevisiae, UniProt P32505 201-251, looked up)
chain: B1 chain with A16K, L39N
notes: Nab2p NLS, residues 201-251; also called L239 to N; source: E. coli BL21(DE3), purified (amylose resin, cation exchange)
Regarding B3, the binding result is reported as “binds”.

B4: MBP–Nab2p NLS R222A, 238PL239/AA (domain or fragment, S. cerevisiae, UniProt P32505 201-251, looked up)
chain: B1 chain with A16K, R22A, P38A, L39A
notes: as for B1
By Kd is commonly meant the constant that tells how readily two partners part at equilibrium. High values mean weaker binding, low ones tighter binding. B4 came in with a Kd of 411 nM.

B5: MBP–Nab2p NLS L239Q (domain or fragment, S. cerevisiae, UniProt P32505 201-251, looked up)
chain: B1 chain with A16K, L39Q
notes: Nab2p NLS, residues 201-251; also called L239 to Q; source: E. coli BL21(DE3), purified (amylose resin, cation exchange)
Regarding B5, the binding result is on record as “binds”.

B6: MBP–Nab2p NLS L239E (domain or fragment, S. cerevisiae, UniProt P32505 201-251, looked up)
chain: B1 chain with A16K, L39E
notes: as for B1
In the case of B6, the “fold decrease in affinity against wild type” value turned out to be 7 fold.

B7: MBP–Nab2p NLS L239F (domain or fragment, S. cerevisiae, UniProt P32505 201-251, looked up)
chain: B1 chain with A16K, L39F
notes: Nab2p NLS, residues 201-251; also called L239 to F; source: E. coli BL21(DE3), purified (amylose resin, cation exchange)
For the molecule B7, the binding result is “binds”.

B8: MBP–Nab2p NLS R219A (domain or fragment, S. cerevisiae, UniProt P32505 201-251, looked up)
chain: B1 chain with A16K, R19A
notes: as for B1
With B8, the “KD,mutant/KD,wild type” value was around 1.

B9: MBP–Nab2p NLS R218A (domain or fragment, S. cerevisiae, UniProt P32505 201-251, looked up)
chain: B1 chain with A16K, R18A
notes: as for B1
On to B9, for which the “KD,mutant/KD,wild type” value is around 1.

B10: MBP–Nab2p NLS L239K (domain or fragment, S. cerevisiae, UniProt P32505 201-251, looked up)
chain: B1 chain with A16K, L39K
notes: Nab2p NLS, residues 201-251; also called L239 to K; source: E. coli BL21(DE3), purified (amylose resin, cation exchange)
Regarding B10, the binding result is listed as “binds”.

B11: MBP–Nab2p NLS 238PL239/AA (domain or fragment, S. cerevisiae, UniProt P32505 201-251, looked up)
chain: B1 chain with A16K, P38A, L39A
notes: as for B1
Consider B11, for which the Kd came out at 376 nM.

B12: MBP–Nab2p NLS F236A (domain or fragment, S. cerevisiae, UniProt P32505 201-251, looked up)
chain: B1 chain with A16K, F36A
notes: as for B1
Turning to B12, the “KD,mutant/KD,wild type” value was found to be 8.

B13: MBP–Nab2p NLS R235H (domain or fragment, S. cerevisiae, UniProt P32505 201-251, looked up)
chain: B1 chain with A16K, R35H
notes: Nab2p NLS, residues 201-251; also called R235 to histidine; source: E. coli BL21(DE3), purified (amylose resin, cation exchange)
For B13, the “KD,mutant/KD,wild type” value was 1.7.

B14: MBP–Nab2p NLS L239I (domain or fragment, S. cerevisiae, UniProt P32505 201-251, looked up)
chain: B1 chain with A16K, L39I
notes: as for B1
In the case of B14, the binding result is “binds”.

B15: MBP–Nab2p NLS R218, R219, R222, R226, R229/AAAAA (domain or fragment, S. cerevisiae, UniProt P32505 201-251, looked up)
chain: B1 chain with A16K, R18A, R19A, R22A, R26A, R29A
notes: Nab2p NLS, residues 201-251; also called pentamutant; source: E. coli BL21(DE3), purified (amylose resin, cation exchange)
Regarding B15, the Kd was 2250 nM.

B16: MBP–Nab2p NLS L239R (domain or fragment, S. cerevisiae, UniProt P32505 201-251, looked up)
chain: B1 chain with A16K, L39R
notes: Nab2p NLS, residues 201-251; also called L239 to R; source: E. coli BL21(DE3), purified (amylose resin, cation exchange)
With B16, the binding result is “binds”.

B17: MBP–Nab2p NLS F236L (domain or fragment, S. cerevisiae, UniProt P32505 201-251, looked up)
chain: B1 chain with A16K, F36L
notes: as for B1
Turning to B17, the binding result was “binds”.

B18: MBP–Nab2p NLS R222A (domain or fragment, S. cerevisiae, UniProt P32505 201-251, looked up)
chain: B1 chain with A16K, R22A
notes: as for B1
For B18, the “KD,mutant/KD,wild type” value was around 1.

B19: MBP–Nab2p NLS L239W (domain or fragment, S. cerevisiae, UniProt P32505 201-251, looked up)
chain: B1 chain with A16K, L39W
notes: Nab2p NLS, residues 201-251; also called L239 to W; source: E. coli BL21(DE3), purified (amylose resin, cation exchange)
On to B19, for which the binding result is “binds”.

B20: MBP–Nab2p NLS L239S (domain or fragment, S. cerevisiae, UniProt P32505 201-251, looked up)
chain: B1 chain with A16K, L39S
notes: Nab2p NLS, residues 201-251; also called L239 to S; source: E. coli BL21(DE3), purified (amylose resin, cation exchange)
Regarding B20, the binding result was “binds”.

B21: MBP–Nab2p NLS L239M (domain or fragment, S. cerevisiae, UniProt P32505 201-251, looked up)
chain: B1 chain with A16K, L39M
notes: Nab2p NLS, residues 201-251; also called L239 to M; source: E. coli BL21(DE3), purified (amylose resin, cation exchange)
With B21, the binding result is “binds”.
